# Data taken from article PMC9371905.
# Target: SRSF1-RBD (UniProt Q07955 1-203)
# Test: EMSA
# Sequence of SRSF1-RBD (Q07955 1-203): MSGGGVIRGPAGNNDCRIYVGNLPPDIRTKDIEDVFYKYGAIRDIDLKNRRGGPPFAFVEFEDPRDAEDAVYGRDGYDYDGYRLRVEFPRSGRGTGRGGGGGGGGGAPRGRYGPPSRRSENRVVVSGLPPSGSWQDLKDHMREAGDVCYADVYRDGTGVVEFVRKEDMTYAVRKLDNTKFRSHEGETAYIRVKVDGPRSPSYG
binder,measurement,value
AdML pre-mRNA (structured_RNA) RNA: GAGCUCGGUACCCCGUUCGUCCUCACUCUCUUCCGCAUCGCUGUCUGCGAGGGCCAGCUGUUGGGGUGAGUACUCCCUCUCAAAAGCGGGCAUGACUUCUGCCCUCGAGUUAUUAACCCUCACUAAAGGCAGUAGUCAAGGGUUUCCUUGAAGCUUUCGUGCUGACCCUGUCCCUUUUUUUUCCACAGCUGCAGGUCGACGUUGAGGACAAACUCUUCGCGGUCUUUCCAGUACUCUU,binding result,binds
